Assay results reported in the supplement of paper PMC10567573.

B1: INTS3 (parent)
chain: DLNSKGKKREFRFHPIKETVVEEP

Variants of: B1
Experiment: protein stability index of a GFP-peptide fusion (GPS, HEK-293T) (PSI 1-6); higher = more stable
Details: c terminus: a fixed tail appended
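Note: lentivirally expressed fusions sorted by FACS into six bins by GFP to DsRed ratio, PSI derived from sequencing read proportions per bin multiplied by bin number.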

Protein stability index: each site, then its substitutions
P24: A 2.2; M 1.92; I 1.68; G 2.25; T 2.38; D 2.4; V 2.46; K 2.08; F 2.81; N 2; W 2.84; C 2.54; Q 2.03; S 2.22; H 2.36; E 2.6; R 2.19; L 2.35; Y 2.32
V20: F 1.9; W 3.44; P 2.73; R 1.77; Q 2.65; T 2.09; K 2.16; N 2.37; G 2.07; C 2.29; S 2.07; E 2.54; Y 1.92; L 1.99; I 1.97; M 2.25; A 2.3; D 2.87; H 2.6
T19: Q 1.96; R 2.04; C 2.34; I 1.94; G 2.62; A 2.07; H 2.42; D 2.87; V 1.86; W 2.05; N 2.31; Y 1.92; L 2.74; M 2.31; S 2.12; F 2.2; P 1.74; E 2.29; K 2
V21: E 3.15; A 2.01; D 2.71; C 2.49; R 1.6; N 2.36; Q 2.06; L 2.54; W 1.64; S 2.1; I 1.99; T 2.62; K 2.01; M 2.08; F 1.96; P 2.22; G 1.97; Y 2; H 2.12
E22: L 1.91; I 2.21; N 1.69; K 2.1; D 2.07; W 2.11; R 1.75; V 1.69; T 1.79; Q 1.64; A 2.22; S 1.92; G 1.79; C 2.06; H 1.91; Y 1.87; M 1.57; P 1.96; F 2.01
E23: I 2.24; V 2.25; S 1.58; F 1.71; Q 2.35; K 2.27; W 1.48; T 2.24; P 2.36; H 1.99; R 2.04; M 2.02; N 1.73; L 2.19; Y 1.71; A 1.81; D 2.45; G 2.13; C 3.71
E18: Y 2.41; W 2.75; V 1.86
